B1: mutant TRIP lacking the N-terminal RING finger and the coiled-coil domain (residues 275-470) fused to the transcription activation domain (other, not shown: large carriers)
chain: PGNLEPASATNETVSRLVFESPAPVEMMNPRLHQPPFGDEIDLNTTFDVNTPPTQTSGSQHCLPKKLCLERARSPMQNVLKKVHKVSKPESQLSLGGQRCVGELDEELAGAFPLFIRNAVLGQKQPNRTTAESRSSTDVVRIGFDGLGGRTKFIQPRDTTIIRPVPVKSKAKSKQKVRIKTVSSASQPKLDTFLCQ
B2: HA epitope tagged-TRIP expressed in 293 cells (other, not shown: small tags and cut ends)
chain: MPILSLCTICSDFFDHSRDVAAIHCGHTFHLQCLIQWFETAPSRTCPQCRIQVGKKTIINKLFFDLAQEEENVLDAEFLKNELDSVKAQLSQKDREKRDSQAIIDTLRDTLEERNATVESLQNALNKAEMLCSTLKKQMKFLEQRQDETKQAREEAHRLKCKMKTMEQIELLLQSQRSEVEEMIRDMGVGQSAVEQLAVYCVSLKKEYENLKEARKATGELADRLKKDLVSSRSKLKTLNTELDQAKLELRSAQKDLQSADQEITSLRKKSDDPPGNLEPASATNETVSRLVFESPAPVEMMNPRLHQPPFGDEIDLNTTFDVNTPPTQTSGSQHCLPKKLCLERARSPMQNVLKKVHKVSKPESQLSLGGQRCVGELDEELAGAFPLFIRNAVLGQKQPNRTTAESRSSTDVVRIGFDGLGGRTKFIQPRDTTIIRPVPVKSKAKSKQKVRIKTVSSASQPKLDTFLCQ
notes: also called HA-TRIP

Legend:
[1] = target: T1, LexA DNA binding domain-TRAF1 fusion protein (bait plasmid pEG202-TRAF1) (UniProt P0A7C2 1-202; P39428 1-409); assay: yeast two-hybrid, b-gal activity
T1 construct: also called LexA-TRAF1
T1 sequence (looked up): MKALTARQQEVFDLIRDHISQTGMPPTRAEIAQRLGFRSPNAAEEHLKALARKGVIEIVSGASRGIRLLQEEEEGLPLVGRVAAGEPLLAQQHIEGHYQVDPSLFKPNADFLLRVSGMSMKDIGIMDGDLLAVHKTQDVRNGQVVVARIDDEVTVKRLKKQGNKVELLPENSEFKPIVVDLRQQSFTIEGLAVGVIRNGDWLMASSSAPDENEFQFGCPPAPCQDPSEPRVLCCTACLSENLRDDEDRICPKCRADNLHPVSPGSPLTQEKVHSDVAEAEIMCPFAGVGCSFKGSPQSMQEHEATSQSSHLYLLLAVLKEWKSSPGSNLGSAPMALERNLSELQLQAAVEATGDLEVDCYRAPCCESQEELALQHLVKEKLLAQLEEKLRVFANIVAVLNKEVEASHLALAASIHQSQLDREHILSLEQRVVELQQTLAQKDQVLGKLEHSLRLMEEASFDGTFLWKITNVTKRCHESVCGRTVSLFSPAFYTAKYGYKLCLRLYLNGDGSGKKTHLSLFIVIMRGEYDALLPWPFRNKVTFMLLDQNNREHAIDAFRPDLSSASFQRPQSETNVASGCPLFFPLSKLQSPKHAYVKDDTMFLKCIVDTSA
Text: (§1) The yeast two-hybrid assay was used to determine the structural requirements for the interaction of TRIP with TRAF1 or TRAF2. […] Expression vectors encoding wild type TRIP or the indicated deletion mutants of TRIP fused to the transcription activation domain were cotransformed into yeast with plasmids expressing LexA DNA binding domain-TRAF1 or -TRAF2 fusion proteins. Inter-actions between fusion proteins were scored by measuring b-gal activity of yeast transformants. The "+" indicates average b-gal activity of three independent yeast transformants was higher than 1000 Miller units; and the "−" indicates average b-gal activity of three independent yeast transformants was about 100 Miller units, which was similar to that of negative controls (bait plasmid alone).

[2] = target: T2, LexA DNA binding domain-TRAF2 fusion protein (UniProt P0A7C2 1-202; P39429 1-501); assay: yeast two-hybrid, b-gal activity
T2 construct: also called LexA-TRAF2
T2 sequence (looked up): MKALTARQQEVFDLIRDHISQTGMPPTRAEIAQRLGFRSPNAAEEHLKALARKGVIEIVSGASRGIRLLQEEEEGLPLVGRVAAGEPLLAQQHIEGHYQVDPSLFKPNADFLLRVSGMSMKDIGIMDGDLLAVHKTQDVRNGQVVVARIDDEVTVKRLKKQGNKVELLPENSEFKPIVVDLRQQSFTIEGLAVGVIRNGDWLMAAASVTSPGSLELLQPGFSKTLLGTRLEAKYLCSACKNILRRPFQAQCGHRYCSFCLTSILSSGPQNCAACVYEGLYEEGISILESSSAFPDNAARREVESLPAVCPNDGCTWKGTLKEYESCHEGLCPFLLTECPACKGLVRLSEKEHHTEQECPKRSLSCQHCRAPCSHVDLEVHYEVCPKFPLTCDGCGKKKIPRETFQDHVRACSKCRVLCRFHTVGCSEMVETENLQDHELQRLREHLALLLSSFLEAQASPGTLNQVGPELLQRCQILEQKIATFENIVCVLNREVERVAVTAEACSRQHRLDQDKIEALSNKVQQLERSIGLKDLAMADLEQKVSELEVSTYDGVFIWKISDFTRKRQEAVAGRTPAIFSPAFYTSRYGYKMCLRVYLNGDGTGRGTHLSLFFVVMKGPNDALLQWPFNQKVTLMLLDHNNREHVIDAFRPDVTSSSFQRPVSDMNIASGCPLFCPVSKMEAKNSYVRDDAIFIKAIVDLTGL
Text: as §1

GST alone (control) = target: T3, GST alone (control) (UniProt P08515 1-218 = GST); assay: glutathione-Sepharose coprecipitation from 293 cells, Western blot (control)
T3 construct: Control for the glutathione-Sepharose coprecipitations; also called GST proteins
T3 sequence (P08515 whole entry): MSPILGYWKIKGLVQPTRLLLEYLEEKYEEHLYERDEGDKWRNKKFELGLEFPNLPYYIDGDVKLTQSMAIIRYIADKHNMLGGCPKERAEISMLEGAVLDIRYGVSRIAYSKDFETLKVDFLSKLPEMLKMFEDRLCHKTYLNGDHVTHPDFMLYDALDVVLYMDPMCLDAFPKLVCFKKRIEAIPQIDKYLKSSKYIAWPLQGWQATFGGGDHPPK
Protocol: Cell lysates were precipitated with glutathione-Sepharose beads, and analyzed by Western blot analysis with anti-TRAF1 or anti-TRAF2 antibodies. The 293 cells were transfected with various combinations of expression vectors and thirty-six hours after transfection, cells were harvested in phosphate-buffered saline/1 mM phenylmethylsulfonyl fluoride, pelleted, and lysed in lysis buffer (20 mM Hepes (pH 7.9), 100 mM KCl, 300 mM NaCl, 10 mM EDTA, 0.1% NP-40, plus protease inhibitors). After lysis, aliquots of cell lysates were incubated with glutathione-Sepharose (Pharmacia) for 2 hr at 4° C. […]
However, since the interaction of TRAFs with the cognate members of the TNFR superfamily is mediated through the TRAF-C domain rather than the entire TRAF domain, it was-important to determine whether TRIP can indirectly interact with the receptors through TRAFs. […] Cell lysates were precipitated with glutathione-Sepharose beads, and analyzed on Western blots with anti-HA, anti-TRAF1, and anti-TRAF2 antibodies. […]
Aliquots of cell lysates were subjected for purification with glutathione-Sepharose beads as described in Experimental Procedures. Proteins coprecipitated with GST-fusion proteins were analyzed by Western analysis with an anti-HA mAb (12CA5), and anti-TRAF1- or anti-TRAF2-polyclonal antibodies.

Binder | binding result [1] | binding result [2] | binding result (GST alone (control))
B1 | no binding | no binding | 
B2 |  |  | no binding
